Where a chain is given by its changes, count along the chain named. Names may count otherwise. Like-named read-outs stand apart in the source and are kept apart here.
Assays:
Assay in all cases: EMSA
6H-QseC2 [1] = biological target: T1, 6H-QseC2 (Mesorhizobium japonicum R7A, UniProt A0ABX6MZB7 1-81)
6H-QseC2 [2] = biological target: T1, 6H-QseC2; remark: listed apart in the source
6H-QseC2 [3] = biological target: T1, 6H-QseC2; remark: listed apart in the source
6H-QseC2 [4] = biological target: T1, 6H-QseC2; remark: listed apart in the source

B1: O2L EMSA (O2R scrambled) (dsDNA)
DNA 1: TACGTGGTTGAATGCTCGACACTACATGGCGCGGTTTGCCTTGTGGATTGCAAATATATCCTAAAATGGGATAGAACTACTGGTAACGTAGTTGATGAGCCGGTTCCCTTCTGGCCGGTTCATCTGATGCAGCGTGCGCTACTAGTTCCCGTA
DNA 2: TACGGGAACTAGTAGCGCACGCTGCATCAGATGAACCGGCCAGAAGGGAACCGGCTCATCAACTACGTTACCAGTAGTTCTATCCCATTTTAGGATATATTTGCAATCCACAAGGCAAACCGCGCCATGTAGTGTCGAGCATTCAACCACGTA
binding result (6H-QseC2 [1]): binds

B2: RDM2 EMSA (both scrambled) (dsDNA)
DNA 1: TACGTGGTTGAATGCTCGACACTACATGGCGCGGTTTGCCTTGTGGATTGCAAGTCCAGATAGAAACGGACATATTGATTATTAATTAGCGCTGATGAGCCGGTTCCCTTCTGGCCGGTTCATCTGATGCAGCGTGCGCTACTAGTTCCCGTA
DNA 2: TACGGGAACTAGTAGCGCACGCTGCATCAGATGAACCGGCCAGAAGGGAACCGGCTCATCAGCGCTAATTAATAATCAATATGTCCGTTTCTATCTGGACTTGCAATCCACAAGGCAAACCGCGCCATGTAGTGTCGAGCATTCAACCACGTA
binding result (6H-QseC2 [2]): no binding

B3: O2L-O2R EMSA (dsDNA)
DNA 1: TACGTGGTTGAATGCTCGACACTACATGGCGCGGTTTGCCTTGTGGATTGCAAATATATCCTAAAATGGGATAATCCGAAACTGGGATTAGTTGATGAGCCGGTTCCCTTCTGGCCGGTTCATCTGATGCAGCGTGCGCTACTAGTTCCCGTA
DNA 2: TACGGGAACTAGTAGCGCACGCTGCATCAGATGAACCGGCCAGAAGGGAACCGGCTCATCAACTAATCCCAGTTTCGGATTATCCCATTTTAGGATATATTTGCAATCCACAAGGCAAACCGCGCCATGTAGTGTCGAGCATTCAACCACGTA
binding result (6H-QseC2 [3]): binds

B4: O2R EMSA (O2L scrambled) (dsDNA)
DNA 1: B3 DNA 1 with A58G, T59A, C60G, C61T, A63C, A66T, T67C, G68T, G70A, T72A
DNA 2: B3 DNA 2 with A82T, C84T, C86A, A87G, T88A, T91G, G93A, G94C, A95T, T96C
binding result (6H-QseC2 [4]): binds
